Here are results for five molecules from patent US20240254222A1 (Bayer, published 2024).

Positions count from the first letter of the chain named.

Holding throughout (test): SPR, captured antibody, Sema3A domain analyte
In assay [1] the target is T1, Mouse Semaphorin3A-Sema Domain, TPP-19069 (mouse, UniProt O08665 21-569).
T1 construct: produced inhouse
T1 sequence: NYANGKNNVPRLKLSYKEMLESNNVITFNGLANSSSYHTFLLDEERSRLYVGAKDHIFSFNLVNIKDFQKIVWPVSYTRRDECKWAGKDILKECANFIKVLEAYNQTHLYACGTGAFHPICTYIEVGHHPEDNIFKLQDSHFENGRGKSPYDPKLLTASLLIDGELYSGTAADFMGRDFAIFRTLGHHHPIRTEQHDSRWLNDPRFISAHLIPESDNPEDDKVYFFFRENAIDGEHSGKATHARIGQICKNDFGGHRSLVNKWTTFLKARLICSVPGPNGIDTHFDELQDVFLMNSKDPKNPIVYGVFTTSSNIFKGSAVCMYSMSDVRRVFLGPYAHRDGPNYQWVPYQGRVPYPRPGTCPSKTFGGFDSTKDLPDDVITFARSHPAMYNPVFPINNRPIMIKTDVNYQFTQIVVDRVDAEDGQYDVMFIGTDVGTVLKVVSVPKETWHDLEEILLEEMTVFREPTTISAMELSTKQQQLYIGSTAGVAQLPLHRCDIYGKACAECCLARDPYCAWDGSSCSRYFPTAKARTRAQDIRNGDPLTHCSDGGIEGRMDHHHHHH
The protocol: (§1) To assess the binding kinetics and affinity of anti-Sema3A antibodies as well as their species cross-reactivity profile, binding assays were conducted using surface plasmon resonance (SPR). Binding assays were performed on a Biacore T200 instrument or on a Biacore 8K+ instrument (Cytiva) at 25° C. using assay buffer HBS P+, 300 mM NaCl, 0.75 mM CaCl₂, 2.5 mM MgCl₂, 1 mg/ml BSA, 0.05% NaN₃. Antibodies were captured either via anti-human Fc IgGs (“Human antibody capture kit”, Order No. BR100839, Cytiva) or in case of Fc-tagged analytes by anti-human Fab IgGs (“Human Fab capture kit”, Order No. 28958325, Cytiva) covalently amine coupled to a Series S CM5 sensor chip (Cytiva). The amine coupling was carried out according to the manufacturer's instructions using 1-ethyl-3-(3-dimethylaminopropyl) carbodiimide hydrochloride (EDC), N-hydroxysuccinimide (NHS) and ethanolamine HCl, pH 8.5 (“Amine Coupling Kit” BR-1000-50, Cytiva.). For phage display hits Fc-tagged human and mouse Sema3A was used as analytes in a concentration range from 1.56-200 nM. Human, mouse, cynomolgus, rat, dog and pig monovalent Sema3A domain were used as analytes in a concentration series from […] in multi cycle kinetics mode or in 100 nM for binding analysis only. The sensor surface was regenerated with glycine pH 2.0 after each antigen injection. Obtained sensorgrams were double referenced (subtraction of reference flow cell signal and buffer injection) and were fitted to a 1:1 Langmuir binding model to derive kinetic data using the Biacore T200 Evaluation software.

For assay [2], the target named is T2, Cyno Semaphorin3A-Sema Domain, TPP-19122 (cynomolgus (Macaca fascicularis), UniProt Q63548 21-569 (rat entry), limits assumed).
T2 construct: produced inhouse
T2 chain: T1 sequence with A3Q, E102K, V126I, Q138E, D139N, S296F, V444I, I455V, V489I
The procedure:
as §1

Assay [3] addresses T3, Rat Semaphorin3A-Sema Domain, TPP-19120 (rat, UniProt Q63548 21-569).
T3 construct: produced inhouse
T3 sequence: T1 sequence with E102K, I455V
The protocol: as §1

B1: TPP-30792 (antibody, human IgG1, lambda, V domains shown)
V domain 1: EVQLLESGGGLVQPGGSLRLSCAASGFTFRSYAVHWVRQAPGKGLEWVSSTEGSGVGTSYTDSVKGRFTISRDNSKNTLYLQMNSLRAEDTAVYYCARMLGGGNPLDYLDYWGQGTLVTVSS
V domain 2: QSVLTQPPSASGTPGQRVTISCSGSSSNLGEGYDVHWYQQLPGKAPKLLIYYSDFRPSGVSDRFSGSKSGTSASLAISGLQSEDEADYYCAAWDDSLSSQVFGGGTQVTVLG
notes: IgG1; prior art, WO 2020/261281; also called 3H4 Univ Ramot; 3H4 (Ramot) Clon I
As to B1, the binding result in assay [1], in assay [2] and in assay [3] was “no binding” in each case.

B2: TPP-30790 (antibody, human IgG1, kappa, V domains shown)
VH: EVQLVESGGGLVQLGGSLRLSCAASGFTFSSYYMSWVRQAPGKGLEWVSTIIKSGGYAYYPDSVKDRFTISRDNSKNTLYLQMNSLRAEDTAVYYCVKGGQGAMDYWGQGTTVTVSS
VL: EIVLTQSPATLSLSPGERATLSCRASQSIGDYLHWYQQKPGQAPRLLIYYASQSISGIPARFSGSGSGTDFTLTISSLEPEDFAVYYCQQGYSFPYTFGGGTKLEIKR
notes: prior art, WO 2020/225400; also called BI clone III; Böhringer (BI) Clone III
As for B2, the Kd is 0.04 nM in assay [1], 0.077 nM in assay [2] and 0.022 nM in assay [3].

B3: TPP-30791 (antibody, human IgG1, kappa, V domains shown)
VH: B2 VH with V12L, Y80N
VL: B2 VL with Y49K
notes: prior art, WO 2020/225400; also called BI clone IV; Böhringer (BI) Clone IV
For the molecule B3, the Kd in assay [1] is 0.028 nM; in assay [2], 0.057 nM; in assay [3], 0.017 nM.

B4: TPP-15374 (antibody, human IgG1, lambda, V domains shown)
VH: EVQLLESGGGLVQPGGSLRLSCAASGFTFSSYEMNWVRQAPGKGLEWVSGISWNSGSIGYADSVKGRFTISRDNSKNTLYLQMNSLRAEDTAVYYCARSGYSSSWFDPDFDYWGQGTLVTVSS
VL: QSVLTQPPSASGTPGQRVTISCTGSSSNIGAGYDVHWYQQLPGTAPKLLIYGNSNRPSGVPDRFSGSKSGTSASLAISGLRSEDEADYYCSSYAGSNPYVVFGGGTKLTVLG
notes: human IgG1; also called IgG1, hit from panning; parental mAb
Turning to B4, the Kd is 8.3 nM in assay [1], 46 nM in assay [2] and 9.8 nM in assay [3].

B5: TPP-11489 (antibody, human IgG1, lambda)
heavy: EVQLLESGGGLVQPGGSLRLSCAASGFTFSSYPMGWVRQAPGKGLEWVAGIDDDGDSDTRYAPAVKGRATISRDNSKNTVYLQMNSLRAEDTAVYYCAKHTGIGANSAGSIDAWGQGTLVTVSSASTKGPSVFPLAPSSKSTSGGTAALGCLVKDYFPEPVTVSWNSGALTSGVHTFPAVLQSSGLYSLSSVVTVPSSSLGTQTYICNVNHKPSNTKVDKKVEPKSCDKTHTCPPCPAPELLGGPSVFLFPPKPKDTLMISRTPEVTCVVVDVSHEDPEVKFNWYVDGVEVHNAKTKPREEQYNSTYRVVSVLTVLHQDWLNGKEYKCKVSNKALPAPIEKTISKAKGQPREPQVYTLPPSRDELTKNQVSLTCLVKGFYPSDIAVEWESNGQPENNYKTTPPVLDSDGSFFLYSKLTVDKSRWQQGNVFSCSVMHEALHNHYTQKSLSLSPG
light: SYELTQPPSVSVSPGQTARITCSGGGSYTGSYYYGWYQQKPGQAPVTVIYYNNKRPSDIPERFSGSLSGTTNTLTISGVQAEDEADYYCGSADNSGDAFGTGTKVTVLGQPKAAPSVTLFPPSSEELQANKATLVCLISDFYPGAVTVAWKADSSPVKAGVETTTPSKQSNNKYAASSYLSLTPEQWKSHRSYSCQVTHEGSTVEKTVAPTECS
notes: human IgG1; also called Chiome; Chiome Prior Art (hIgG1)
With B5, the Kd in assay [1] is 160 nM; in assay [2] it was 63 nM; in assay [3], 33 nM.
